# Molecular target: CD40 on human B cells (human) (UniProt P25942)
# Assay: cell-based or functional assay
# UniProt P25942, sequence (P25942 21-277): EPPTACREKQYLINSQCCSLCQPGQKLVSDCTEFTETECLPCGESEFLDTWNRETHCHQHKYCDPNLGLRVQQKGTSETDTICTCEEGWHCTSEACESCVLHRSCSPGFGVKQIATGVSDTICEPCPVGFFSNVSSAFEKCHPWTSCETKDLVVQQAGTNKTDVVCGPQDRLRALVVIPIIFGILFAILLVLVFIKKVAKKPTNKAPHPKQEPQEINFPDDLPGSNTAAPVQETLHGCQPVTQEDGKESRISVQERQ
Substance,average CD40 internalization score after co-culture with 10% hCD40L-CHO cells,average CD40 internalization score on fresh B cells co-cultured 1 h with autologous CD40L-IZ-stimulated B cells that had upregulated CD40L,percent of B cells with CD40 downregulation after 1 h co-incubation with 1% hCD40L-CHO cells [%],percent of B cells with CD40 internalization after co-culture with 10% hCD40L-CHO cells [%],percent of B cells with NF-kB p50 nuclear translocation after hCD40L-CHO cells (unstimulated: 29%) [%],percent of fresh B cells with internalized CD40 after co-culture with autologous CD40L-IZ-stimulated B cells that had upregulated CD40L [%],percent of fresh B cells with p50 nuclear translocation after co-culture with CD40L-IZ-stimulated B cells [%],percent of total CD40lo/- B cells after 1 h co-incubation with 10% hCD40L-CHO cells [%],average CD40 internalization score after 1 h stimulation (unstimulated: 0.41),percent of B cells with NF-kB p50 nuclear translocation (unstimulated: 29%) [%],percent of B cells with internalized CD40 (internalization score >2.5; unstimulated: 2.1%) [%]
"human CD40 ligand (CD40L), membrane form on cells (from UniProt P29965 1-261)",1.69,1.26,5,33,54,19.5,41,37,,,
human CD40L isoleucine zipper (CD40L-IZ) (from UniProt P29965 113-261) (ligand),,,,,,,,,2.09,58,42

# Reference: patent publication US20230236188A1
